Assay results published in patent publication US20240084003A1 (SIMCERE ZAIMING PHARMACEUTICAL, published 2024).

T1: murine CD22 protein (ACROBiosystems, SI2-M52Ha) (murine, UniProt P35329 22-708)
T1 construct: extracellular domain; also called murine CD22-ECD; murine CD22-ECD-His
T1 sequence (looked up): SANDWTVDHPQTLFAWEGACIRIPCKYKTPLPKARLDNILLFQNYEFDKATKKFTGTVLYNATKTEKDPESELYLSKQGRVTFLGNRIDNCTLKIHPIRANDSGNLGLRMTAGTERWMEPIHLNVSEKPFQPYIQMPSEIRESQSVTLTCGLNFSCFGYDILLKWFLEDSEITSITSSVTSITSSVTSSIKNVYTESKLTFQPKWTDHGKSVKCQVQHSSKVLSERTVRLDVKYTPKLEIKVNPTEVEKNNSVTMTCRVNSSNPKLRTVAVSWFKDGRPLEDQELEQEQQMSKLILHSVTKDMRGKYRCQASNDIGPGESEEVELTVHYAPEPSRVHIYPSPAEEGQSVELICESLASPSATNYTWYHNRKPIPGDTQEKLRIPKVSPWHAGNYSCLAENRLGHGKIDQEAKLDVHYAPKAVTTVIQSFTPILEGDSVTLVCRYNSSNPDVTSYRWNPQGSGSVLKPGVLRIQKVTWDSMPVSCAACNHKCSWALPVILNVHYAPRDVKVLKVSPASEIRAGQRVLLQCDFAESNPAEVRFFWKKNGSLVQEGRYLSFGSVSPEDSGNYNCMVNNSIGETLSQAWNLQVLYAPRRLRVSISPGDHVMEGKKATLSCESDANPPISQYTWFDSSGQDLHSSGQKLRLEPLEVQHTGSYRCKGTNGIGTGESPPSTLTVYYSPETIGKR

T2: human CD22, endogenous on Raji cells (human, UniProt P20273 20-847)
T2 construct: whole, on cells; Endogenous protein of the Raji cell line
T2 sequence (looked up): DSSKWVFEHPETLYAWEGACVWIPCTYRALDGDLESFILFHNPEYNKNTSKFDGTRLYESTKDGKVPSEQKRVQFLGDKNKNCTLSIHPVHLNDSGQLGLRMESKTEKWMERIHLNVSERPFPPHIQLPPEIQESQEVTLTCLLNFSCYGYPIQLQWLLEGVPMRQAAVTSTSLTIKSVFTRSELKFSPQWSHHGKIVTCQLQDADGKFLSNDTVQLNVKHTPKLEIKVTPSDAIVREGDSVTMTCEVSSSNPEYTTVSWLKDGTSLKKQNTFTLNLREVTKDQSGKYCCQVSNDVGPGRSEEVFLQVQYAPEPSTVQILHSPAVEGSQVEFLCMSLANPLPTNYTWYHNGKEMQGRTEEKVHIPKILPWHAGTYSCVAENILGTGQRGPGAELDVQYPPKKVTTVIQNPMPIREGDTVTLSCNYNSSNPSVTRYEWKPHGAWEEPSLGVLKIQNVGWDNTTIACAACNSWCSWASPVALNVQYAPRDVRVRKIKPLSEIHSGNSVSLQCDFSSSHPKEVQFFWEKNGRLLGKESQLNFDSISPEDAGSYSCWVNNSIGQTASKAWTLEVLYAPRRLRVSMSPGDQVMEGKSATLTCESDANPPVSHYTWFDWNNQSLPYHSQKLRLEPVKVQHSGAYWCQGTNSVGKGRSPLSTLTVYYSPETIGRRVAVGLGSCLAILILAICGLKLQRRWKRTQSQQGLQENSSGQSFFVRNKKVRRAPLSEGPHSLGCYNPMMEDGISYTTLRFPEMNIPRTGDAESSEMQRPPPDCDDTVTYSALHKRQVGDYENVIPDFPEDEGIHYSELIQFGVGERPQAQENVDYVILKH

T3: human CD22, full length, on CHO-K1-human CD22 2C4 cells (human, UniProt P20273 20-847)
T3 construct: Full-length human CD22 (NCBI NP_001762.2) stably transfected into CHO-K1
T3 sequence: T2 sequence (looked up)

B1: F1.250.16 human-murine chimeric antibody (antibody, human IgG1, kappa, V domains shown)
VH: QVQLQQSGAEQVKPGASVKMSCKASGYTFTTYPIEWMKQNHGESLDWIGNIHPYNDDTEYNEKFKGKATLTVEKSSNTVFLELSRLTSDDSAVYYCVRGDYYNSRYWYFDVWGTGTTVTVSS
VL: DIVMTQSQKFMSTTVGDRVSITCKAGQNVRTAVAWYQQKPGQSPKLLIYSASTRYIGVPERFTGSGSGTDFTLTITNMQSEDLADYFCQQYSSFPLTFGTGTKLELKR
notes: Chimeric, human IgG1 / kappa; VL tied by name
B2: F1.120.15 human-murine chimeric antibody (antibody, human IgG1, kappa, V domains shown)
VH: QVQLQQSGPELVKPGASVKISCKASGNAFSNSWMNWVKQRPGKGLEWIGRVYSEDGDTQYNGKFRDKATLTADRSTSTAYMQLSSLTSEDSAVYFCARWLIYYGTYGAMDYWGQGTSVTVSS
VL: DIQMTQTTSSLSASLGDRVTISCRASQDINNYLNWYHQKPDGTVKLLIYFTSRPYSGVPSRFSGSGSGTDYSLTISNLEQEDIATYFCQQGNTLPWTFGGGTKLEIKR
notes: Chimeric, human IgG1 / kappa
B3: F1.200.11 human-murine chimeric antibody (antibody, human IgG1, kappa, V domains shown)
VH: QNQLVQSGPELKKPGETVKISCKASGYTFTTAGMQWVQKMPGKGFKWIGWINTLSGEPKYAEDFKGRFAFSLETSATTAYLQISNLKNEDTATYFCARAYYSNLYWYFDVWGTGTTVTVSS
VL: DIVMTQSQKFMSTTVGDRVTITCKASQNVVTAVAWYQQKPGQSPKVLIYSASNRYSGVPDRFTGSGSGTDFTLTISNMHSEDLANYFCHQYSSYPFTFGSGTKLEIKR
notes: Chimeric, human IgG1 / kappa
B4: F1.280.1 human-murine chimeric antibody (antibody, human IgG1, kappa, V domains shown)
VH: QIQLVQSGPELKKPGETVKISCKASGYTFTTYGMSWVKQTPGKGLTWMGWINTDSGVPTYADDFKRRFAFSLEASATTAYLQINNLKNEDTATYFCARGGPDYWGQGTTLTVSS
VL: DILLTQSPATLSVTPGETVSLSCRASQSIYKNLHWYHQKSHRSPRLLIKYASDSISGIPSRFTGSGSGTNFTLSINSVKPEDEGIYYCLQGYIVPLTFGAGTKLELKR
notes: Chimeric, human IgG1 / kappa
B5: F1.216.2 human-murine chimeric antibody (antibody, human IgG1, kappa, V domains shown)
VH: QVQLQQSGPEVVRPGASVKISCKASGYAFSSSWMNWMKQRPGKALEWIGRIYPGDGDTNYSGEFKVKATLTADKSSSTAYMQLSSLTSEDSAVYFCAREGSYYSNPWYFDYWGQGTTLTVSS
VL: DVLVTQTPLSLPVSLGDQASISCRSSQSIVQSNGDTYLEWYLQKPGQSPKLLIYKVSNRFSGVPDRFSGSGSGTDFTLKISRVEAEDLGVYYCFQGSHVPFTFGSGTKLEIKR
notes: Chimeric, human IgG1 / kappa
B6: F1.192.1 human-murine chimeric antibody (antibody, human IgG1, kappa, V domains shown)
VH: AVQLQQSGVELVRPGASVKLSCTGSDFNIKEDYIHWVKQRPEQGLEWIGWIDPENGDTEYASKFQGKATITADTSSNTAYLQLSSLTSEDTAVYYCATYGSLDYWGQGTTLTVSS
VL: DIKMTQSPSSMYAFLGERVTITCKASQGINSFLTWFQQKPGKSPKTLIYRANRLVDGVPSRFSGSGSGQDYSLTISSLEYEDVGIYYCLQYDEFPRTFGGGTKLEIKR
notes: Chimeric, human IgG1 / kappa

Molecular target: T1, murine CD22 protein (ACROBiosystems, …)
Assay: ELISA, coated murine CD22, 10 nM Ab
Method: (§1) In order to detect the binding activity of CD22 human-murine chimeric antibodies to CD22 protein, the purified human CD22-ECD-His protein obtained in Example 2 was diluted with PBS to a final concentration of 2 μg/mL, and then added to 96-well ELISA plate at 100 μl/well. The plate was sealed with plastic film and incubated overnight at 4° C., the plate was washed 2 times with PBS the next day, and then a blocking solution [PBS+2% (w/w) BSA] was added for blocking at room temperature for 2 hours. […] After incubation at 37° C. for 2 hours, the plate was washed 3 times with PBS. HRP (horseradish peroxidase)-labeled secondary antibody (purchased from Sigma, catalog number: A0170) was added, and incubated at 37° C. for 2 hours, and the plate was washed 5 times with PBS. TMB substrate was added at 50 μl/well, and incubated at room temperature for 30 minutes, then a stop solution (1.0 N HCl) was added at 50 μl/well.
(§2) In order to detect the species cross-binding activity of the chimeric antibodies, an ELISA plate was coated with commercial murine CD22 protein (ACROBiosystems, catalog number: SI2-M52Ha) and monkey CD22 protein (ACROBiosystems, catalog number: SI2-R52Ha), respectively, and the ELISA detection was performed according to the method in Example 5.1.

Binder | OD450 [OD450]
B1 | 0.06
B2 | 0.06
B3 | 0.06
B4 | 0.07
B5 | 0.06
B6 | 0.08

Molecular target: T2, human CD22, endogenous on Raji cells
Assay: FACS, Raji cells
Excerpt: (§3) The required cells were scale-up cultured in a T-75 cell culture flask to the logarithmic growth phase. For the adherent cell CHO-K1, the medium was aspirated, the cells were washed 2 times with PBS buffer, and then digested with trypsin. After the digestion was terminated, the cells were washed 2 times with PBS buffer. For suspension cell Raji, the medium supernatant was directly centrifuged and discarded, and the cell pellet was washed 2 times with PBS. After counting the cells in the previous step, the cell pellet was resuspended with [PBS+2% (w/w) BSA] blocking solution to 2×10⁶ cells/ml, and added to a 96-well FACS reaction plate at 50 μl/well, and then the chimeric antibody test sample was added at 50 μl/well, and incubated on ice for 2 hours. The mixture was centrifuged and washed 3 times with PBS buffer, Alexa Flour 488-labeled secondary antibody (purchased from Invitrogen, catalog number: A-11013) was added at 50 μl/well, and incubated on ice for 1 hour. The obtained mixture was centrifuged and washed 5 times with PBS, and FACS (FACS Canto™, purchased from BD Company) was used for detection and result analysis. Data analysis was performed by software (CellQuest) to obtain the mean fluorescence density (MFI)of the cells. And then software (GraphPad Prism8) was used for analysis, data fitting, and EC50 value calculation. […] The same method was used to detect the binding of the chimeric antibodies to endogenous CD22-negative cell MoLT4 cells (purchased from ATCC, CRL-1582) and CHO-K1 cells.

Binder | EC50 [nM] | Maximum mean fluorescence intensity [MFI]
B1 | 0.16 | 25000
B2 | 0.89 | 23700
B3 | 2.41 | 20800
B4 | 0.5 | 25000
B5 | 0.16 | 25300
B6 | 0.37 | 24400

Molecular target: T1, murine CD22 protein (ACROBiosystems, …)
Assay: ELISA, coated murine CD22, 0.0001 nM Ab
Method: as §1, §2

Binder | OD450 [OD450]
B1 | 0.05
B2 | 0.05
B3 | 0.05
B4 | 0.05
B5 | 0.06
B6 | 0.07

Molecular target: T3, human CD22, full length, on …
Assay: FACS, CHO-K1-human CD22 2C4 cells
Excerpt: as §3

Binder | EC50 [nM] | Maximum mean fluorescence intensity [MFI]
B1 | 0.49 | 37400
B2 | 1.07 | 27900
B3 | 11.2 | 23000
B4 | 0.92 | 43800
B5 | 0.32 | 31500
B6 | 0.81 | 27200

Molecular target: T1, murine CD22 protein (ACROBiosystems, …)
Assay: ELISA, coated murine CD22, 100 nM Ab
Method: as §1, §2

Binder | OD450 [OD450]
B1 | 0.06
B2 | 0.06
B3 | 0.07
B4 | 0.16
B5 | 0.08
B6 | 0.08

Molecular target: T1, murine CD22 protein (ACROBiosystems, …)
Assay: ELISA, coated murine CD22, 0.001 nM Ab
Method: as §1, §2

Binder | OD450 [OD450]
B1 | 0.05
B2 | 0.05
B3 | 0.05
B4 | 0.05
B5 | 0.05
B6 | 0.06

Molecular target: T1, murine CD22 protein (ACROBiosystems, …)
Assay: ELISA, coated murine CD22, 0.01 nM Ab
Method: as §1, §2

Binder | OD450 [OD450]
B1 | 0.05
B2 | 0.05
B3 | 0.05
B4 | 0.05
B5 | 0.05
B6 | 0.07

Molecular target: T1, murine CD22 protein (ACROBiosystems, …)
Assay: ELISA, coated murine CD22, 0.00001 nM Ab
Method: as §1, §2

Binder | OD450 [OD450]
B1 | 0.06
B2 | 0.06
B3 | 0.06
B4 | 0.06
B5 | 0.06
B6 | 0.07

Molecular target: T1, murine CD22 protein (ACROBiosystems, …)
Assay: ELISA, coated murine CD22, 0.1 nM Ab
Method: as §1, §2

Binder | OD450 [OD450]
B1 | 0.05
B2 | 0.05
B3 | 0.05
B4 | 0.05
B5 | 0.05
B6 | 0.07
